This is an account of results in paper PMC10279719 (Nature Communications, 2023).

A word on the Kd: it is the equilibrium constant for the complex coming apart. Usually stoichiometry N stands for the number of molecules, sites or subunits per partner or assembly.

Non-standard residues stand in square brackets, D forms with d. pY = N[C@@H](Cc1ccc(OP(=O)(O)O)cc1)C(=O)O

For series [1], the target named is T1, CrkII NSH3 domain (CrkII^NSH3, residues 134–191) (human, UniProt P46108-1 134-191).
T1 construct: human CrkII residues 134-191, N-terminal SH3 domain
Put plainly: SPR; Biacore S200; CrkII^NSH3 amine coupled to CM5, peptides injected; 20 °C, HBS-TP (20 mM HEPES pH 7.4, 150 mM NaCl, 1 mM TCEP, 0.005% Tween-P20); steady-state 1:1 fit. To be noted: both partners purified.

For series [2], the target named is T1, CrkII NSH3 domain (CrkII^NSH3, residues …). The series is described as above. Conditions: both partners purified. This is another data set of the same source.
Series [3] concerns the molecule itself. Put plainly: SEC-MALS; Superdex 200 Increase 10/300 GL, 20 mM HEPES pH 7.5, 150 mM NaCl, 1 mM TCEP, 0.5 ml/min. Background: In gel filtration, larger molecules generally elute earlier.
Series [4] deals with T1, CrkII NSH3 domain (CrkII^NSH3, residues …). Put plainly: ITC; ternary, sequential; CrkII^NSH3 (400 μM, syringe) titrated into the peptide (16.8 µM) left in the cell after a first titration with 14-3-3ɣ; 25 °C, 20 mM HEPES pH 7.4, 150 mM NaCl, 1 mM TCEP. To be noted: both partners purified. (Isothermal titration calorimetry measures the heat released or taken up as one component is titrated into another.)

Series [5] addresses T2, CrkII SH2 domain (CrkII^SH2, residues 6-120) (human, UniProt P46108-1 6-120, biotin (EZ-Link NHS-PEG4-Biotin, 1:1 molar ratio) where it was immobilised (a1)).
T2 construct: human CrkII SH2 domain, UniProt P46108-1, residues 6-120; The His tag is TEV-cleavable and was cleaved 'when required'
As to the kind of experiment: SPR; biotinylated adapter proteins captured with a biotin CAPture kit, pY peptides as analytes; Biacore 8K+, 20 °C, HBS-TP (20 mM HEPES pH 7.4, 150 mM NaCl, 1 mM TCEP, 0.005% Tween-P20) with 2% DMSO; 1 M NaCl regeneration; steady state, 1:1 model. To be noted: both partners purified.

The target in series [6] is T3, full length CrkII, dimer (CrkII^FL dimer) (human, UniProt P46108-1 1-304, biotin (EZ-Link NHS-PEG4-Biotin, 1:1 molar ratio) where it was immobilised (a1)).
T3 construct: full length human CrkII, printed as UniProt P46108-1, residues 1-330
The series is described as above. To be noted: both partners purified.

Series [7] concerns the target T4, full length Grb2 (Grb2^FL, residues 1-217) (human, UniProt P62993-1 1-217, biotin (EZ-Link NHS-PEG4-Biotin, 1:1 molar ratio) where it was immobilised (a1)).
T4 construct: full length human Grb2, UniProt P62993-1, residues 1-217
Described as above. To be noted: both partners purified.

For series [8], the target named is T5, full length CrkII, monomer (CrkII^FL monomer) (human, UniProt P46108-1 1-304, biotin (EZ-Link NHS-PEG4-Biotin, 1:1 molar ratio) where it was immobilised (a1)).
T5 construct: full length human CrkII, printed as UniProt P46108-1, residues 1-330
The series is described as above. To be noted: both partners purified.

Series [9] has as its target T6, Grb2 SH2 domain (Grb2^SH2) (human, UniProt P62993-1 60-152, biotin (EZ-Link NHS-PEG4-Biotin, 1:1 molar ratio) where it was immobilised (a1)).
T6 construct: SH2 domain of human Grb2; This construct is not in the list of the methods; the other adapter constructs were made in E. coli C41 (DE3) with an N-terminal His8 tag
Described as above. To be noted: both partners purified.

B1: PEAK3^54–66 peptide (Ac-PLPPPLPKKILTR-NH2) (peptide)
peptide: Ac-PLPPPLPKKILTR-NH2
notes: also called PEAK3 PRM peptide; source: synthetic peptide, bought: Mimotopes
Consider B1, for which binding in [1] was put at a Kd of 1.7 µM.

B2: PEAK2^709–721 peptide (Ac-FSPPPPPPKSRHL-NH2) (peptide)
peptide: Ac-FSPPPPPPKSRHL-NH2
notes: human PEAK2 (SgK223, PRAG1) residues 709-721; also called second PRM of PEAK2; source: synthetic peptide, bought: Mimotopes
Molecule B2 showed a Kd in series [2] of 13 µM.

B3: PEAK2IDR1 (PEAK2 residues 802-1406) (domain or fragment, human, UniProt Q86YV5 802-1406, looked up)
chain: EDVSPSGPQQPPPLPQKKIVSRAASSPDGFFWTQGSPKPGTASPKLNLSHSETNVHDESHFSYSLSPGNRHHPVFSSSDPLEKAFKGSGHWLPAAGLAGNRGGCGSPGLQCKGAPSASSSQLSVSSQASTGSTQLQLHGLLSNISSKEGTYAKLGGLYTQSLARLVAKCEDLFMGGQKKELHFNENNWSLFKLTCNKPCCDSGDAIYYCATCSEDPGSTYAVKICKAPEPKTVSYCSPSVPVHFNIQQDCGHFVASVPSSMLSSPDAPKDPVPALPTHPPAQEQDCVVVITREVPHQTASDFVRDSAASHQAEPEAYERRVCFLLLQLCNGLEHLKEHGIIHRDLCLENLLLVHCTLQAGPGPAPAPAPAPAPAAAAPPCSSAAPPAGGTLSPAAGPASPEGPREKQLPRLIISNFLKAKQKPGGTPNLQQKKSQARLAPEIVSASQYRKFDEFQTGILIYELLHQPNPFEVRAQLRERDYRQEDLPPLPALSLYSPGLQQLAHLLLEADPIKRIRIGEAKRVLQCLLWGPRRELVQQPGTSEEALCGTLHNWIDMKRALMMMKFAEKAVDRRRGVELEDWLCCQYLASAEPGALLQSLKLLQLL
modifications: phosphorylated at the tandem site 14-3-3 motif (RAASSP) by LC MS/MS
notes: PEAK2 (SgK223, PRAG1), human, UniProt Q86YV5, residues 802-1406; Homodimer by SEC-MALS; TEV-cleavable tag
For the molecule B3, the “stoichiometry N” value in [3] is 2.

B4: PEAK3^tandem peptide, non-phosphorylated (residues 54–74; Ac-PLPPPLPKKILTRTQSLPTRR-NH2) (peptide)
peptide: Ac-PLPPPLPKKILTRTQSLPTRR-NH2
notes: source: synthetic peptide, bought: Mimotopes
As for B4, binding in series [4] was put at a Kd of 0.7 µM.

B5: PEAK3 23-38-pY24 peptide (Ac-T(pY)SNLGQIRAHLLPSK-NH2) (peptide)
peptide: Ac-T[pY]SNLGQIRAHLLPSK-NH2
SMILES: CC[C@H](C)[C@H](NC(=O)[C@H](CCC(N)=O)NC(=O)CNC(=O)[C@H](CC(C)C)NC(=O)[C@H](CC(N)=O)NC(=O)[C@H](CO)NC(=O)[C@H](Cc1ccc(OP(=O)(O)O)cc1)NC(=O)[C@@H](NC(C)=O)[C@@H](C)O)C(=O)N[C@@H](CCCNC(=N)N)C(=O)N[C@@H](C)C(=O)N[C@@H](Cc1c[nH]cn1)C(=O)N[C@@H](CC(C)C)C(=O)N[C@@H](CC(C)C)C(=O)N1CCC[C@H]1C(=O)N[C@@H](CO)C(=O)N[C@@H](CCCCN)C(N)=O
notes: source: synthetic peptide, bought: Mimotopes (95% purity)
For the molecule B5, the Kd was 5.3 µM in series [5]; 6.2 µM in series [6]; 2.2 µM in series [7]; 6.8 µM in series [8]; 4.2 µM in series [9].
